Test: soluble on expression in E. coli; label from the status in PepcDB or PDB records

With “MSLQQALINFYYQFHTKQHYFLCHDILEDAWKAENNYSKQDAVVSLILFATACYHYRRNNLKGAYKSFNKSKEIIQNAKDRDALYLNLNDYQLLIEQQIAKLNAAKPFSSVILPITPVFERIIKANYPDYDYNQETATDPFIVDHHMRRDRSEVIAAKEEAIQLRKHRRNEGHHHHHH” as the sequence, how does the “soluble on expression in E. coli” value read?
The value was “soluble”.

For “MSNKTKLKDNKELLYQVVLSYKVSHNYPLKAFLIECKNKLNECIDMIWNNIKYTKKDNPKLPKSNEFKRELRNKLLENWNYASHYIDGIIKTSYSILQSWASNYKRGYRTKTKPIAKRLFVRVKTTLIKYDKEKGEIRITIKPRKDYLILNIKNEWFFDKVKNLTIGEIILKEKETFLTFKDNLNYSDKGMIVGVDSNLRSLDLFHPIEGWTRVDLTELHRIKEVYDRKIDFLKKLLKKFPLRAMRKINRLFERRRNRVKDFLHKLTIQLSRLFPDAIFVFEDLNKRRMYKSKYFNRKIDRVNWNGLIEKISYKTIVILVNPAYTSTICPICGSRMESQEGQVVYCSNCLNSFNRQLVGCYNIFKRGLGNIKEIMGGSGVTTTGVEVSFGKLMTPNPNVIYIVDYNGKYFNEIA”, which “soluble on expression in E. coli” value is on record?
The value was “soluble”.

For “MSVLEVKGLTKVYQSKGSVATTALNDINFKIEEGEFVGIMGPSGSGKTTLLNLLATIDKQTSGHVLVNGEEINQMRAAKLAEFRRTHLGFIFQDFNLLDTLSIKENIILPLVMAKKSVNEIDAKVLEIAKFLNIEEILNKKVYEVSGGQQQRAAAARAIIHEPTLILADEPTGNLDSKSAKSLMSALQDLHEQKRVTIAMVTHDPVAASYCERILFIRDGEIFSEIHKGRTKQAFFQEILDVLAMLGGEYHELSPARA”, which “soluble on expression in E. coli” value is on record?
Its value is “not soluble”.

With “AHHHHHHGSKKRLPASRVYIKDILEGYFVKSEGDFEPNYLITKDARKIYRAKIVGTVIREPLIAEDETYGKFQIDDGTGVIWVLGFRDDTKFAKLVKKGDLVQVIGKIAEWRDDKQILVEGVAKVHPNMWILHRYETLKEKIEHARKAKIAFEIYNTYGITAKSKVIAKNKGVPEELLETIDELYGIIMEEKAMEEPVEELIEEEITEEGKEENEILEKVKQEILEILRSKKIAVSRKYILKKLGEKYDEETIEDAIAELLADGEIYEPETGYYKLL” as the sequence, how does the “soluble on expression in E. coli” value read?
Its value is “not soluble”.

Which “soluble on expression in E. coli” value does the source give for “MGSDKIHHHHHHMDVLVVGATGTLGRQIARRALDEGHRVRCLVRSPKRGNFLREWGCDLVRGDLTQPESLTFALEGIEAVIDAATTRSTDSLSCYDVDWQGKVNLIKAATEAGVQRFVFCSIIDAEKHRDVPLMDIKYCTEEFLRQSGLNYTILRLAGFMQGLIAEFAIPVLEGRTAFITQDSDPIAYLSTLDIARFAVAALTTPATEKQTLPVVGPKAWSGLEIFRLCERLSGKETKIARLPLATVSAMKRFFRFFQWGWNIADRLAFSEVMACGRPFTADMAATYTAFGIDPAEITGLESYLNDYFSVMLRRLKELEFDQKKDKKKKVPF” here?
The value was “not soluble”.

With “MGSDKIHHHHHHVSKLSKTRIILACLLNDSVMTTTTAALTPNPIPDLGTDLTTEPCPLTAAQLDVLNRQIKLWGKELGFAHIGVADVDLSQHEAALQDWLDKGYHGEMGYMANHGMMRARPAELHPGAIRVICARMDYLPPDAGFASNLTDPNLGYISRYAGGRDYHKLIRQRLKKLGDKINQYCQQLDFDATDFRPFVDSAPILERPLADKAGLGWTGKHSLILHPDAGSWFFLGELLINLPLPLDIPIEEGCNTCVACIKSCPTDAIVEPYVVDARRCISYLTIELQGAIPEEFRPLIENRIYGCDDCQLVCPVNAKAPLTKETDFHTRTTLIQPDLLTLFAWSETYFLNQTEGSAIRRIGHKRWLRNIAIALGNAPANPAIIEALEQRKHSEEVDDMVLEHIEWALVQQIQKAPQSALSRKTQRVIRSIQKGLPRDA” as the sequence, how does the “soluble on expression in E. coli” value read?
The value was “not soluble”.

Which “soluble on expression in E. coli” value does the source give for “MLVAERQQKIVEIVNMRSSIRVSELSDIFSVTEETIRRDLEKLEKEHKLSRSHGGAVSIQQKESEIHFSEREITNVIEKKAIAHEAAKYVKSGDRIILDASTTAWYMAKILPDIELTVITNSMKAAIELSNKENISVISTGGILLEKSLSFAGPLAERSLETYHVNKTFLSCKGFDVHNGMSDSNEWQALLKKRMIERSDQTILMADSSKWGNREFSHIASLQDVSRLITDSGLDPASVKALEDKKVKVTAVPLSKRGLEHHHHHH” here?
The value was “soluble”.

With “MISVNDFRTGLTIAVDNGLWQVLDFQHVKPGKGAAFVRSKLRNLRTGSVQEKTFRAGEKVEKAHIENRRMQYLYASGEAHVFMDNGTYEQIELGEKQIERELKFLKENMEVSIMTYQGEVLGVELPNTVELQVTETEPGIKGDTASNVTKPATLETGLVVQVPIFINEGEMLIINTGEGKYVSRA” as the sequence, how does the “soluble on expression in E. coli” value read?
Its value is “soluble”.
